The values that follow come from the RNAGym collection of RNA variant scans (doi:10.7554/elife.90254).

Sequences and labels used below:
B1: OR4K15 (parent)
chain: GUUAACGGUCAUAGGCCAUGGAAACUAGGAGCACCAUUUCGCUGCCAGUGAAGAAAUGAACAAAGAAAAUCUGGGCCAGGCAGGCAUCAAAAGAAAUAGUCUUGCGCUCAACCAGAAAGUCUGUAAUCAUUUUAAGGGUA

Variants of B1 are the subject of the data set. The data set can be described thus: self-cleavage, relative activity (ratio to wild type); higher = more cleavage; in vitro, sequencing; the parent is a self-cleaving ribozyme.
Take GUUAACGGUCAUAGGCCAUGGAAACUAGGAGCACCAUUUCGCUGCCAGUGAAGAAAUGAACAAAGAAAAUCUGGGCCAGGCAGGCAUCAAAAGAACUAGUCUUGCGCUCAACCAGAAAGUCUGUAAUCACUUUAAGGGUA [A96C U130C]: the self-cleavage came to 0.69. On to GUUAACGGUCAUAGGCCAUGGAAACUAGGAGCACCAUUUCGCUGCCAGUGAAGAAAUGAACAAAGAAAAUCUGGGCCAGGCAGGCAUCAAAAGAUAUAGUCUUGCGCUCAACCAGAAAGUCUGUAAUCAUUUUGAGGGUA [A95U A134G], for which the self-cleavage turned out to be 1.48. For GUUAACGGUCAUAGGCCAUGGAAACUAGGAGCACCAUUUCGCUGCCAGUGAAGAAAUGAACAAAGAAAAUCUGGGCCAGGCAGGCAUCAAAAGAAGUAGUCUUGCGCUCAACGAGAAAGUCUGUAAUCAUUUUAAGGGUA [A96G C113G] the value was 0.02; for GUUAACGGUCAUAGGCCAUGGAAACUAGGAGCACCAUUUCGCUGCCAGUGAAGAAAUGAACAAAGAAAAUCUGGGCCAGGCAGGCAUCAAAAGAAGUAGUCUUGCGCUCAACCAGAAAGUCUGUAUUCAUUUUAAGGGUA [A96G A126U], 1.49. On to GUUAACGGUCAUAGGCCAUGGAAACUAGGAGCACCAUUUCGCUGCCAGUGAAGAAAUGAACAAAGAAAAUCUGGGCCAGGCAGGCAUCAAAAGAAGUAGUCUUGCGCUCAACCAGUAAGUCUGUAAUCAUUUUAAGGGUA [A96G A116U], for which the self-cleavage amounted to 0.24. For GUUAACGGUCAUAGGCCAUGGAAACUAGGAGCACCAUUUCGCUGCCAGUGAAGAAAUGAACAAAGAAAAUCUGGGCCAGGCAGGCAUCAAAAGAAGUAGUCUUGCGCUCAACCGGAAAGUCUGUAAUCAUUUUAAGGGUA [A96G A114G] the value was 0.44. For GUUAACGGUCAUAGGCCAUGGAAACUAGGAGCACCAUUUCGCUGCCAGUGAAGAAAUGAACAAAGAAAAUCUGGGCCAGGCAGGCAUCAAAAGAAGUCGUCUUGCGCUCAACCAGAAAGUCUGUAAUCAUUUUAAGGGUA [A96G A98C] the value was 0.63. For GUUAACGGUCAUAGGCCAUGGAAACUAGGAGCACCAUUUCGCUGCCAGUGAAGAAAUGAACAAAGAAAAUCUGGGCCAGGCAGGCAUCAAAAGAAGUGGUCUUGCGCUCAACCAGAAAGUCUGUAAUCAUUUUAAGGGUA [A96G A98G] the value was 0.91; for GUUAACGGUCAUAGGCCAUGGAAACUAGGAGCACCAUUUCGCUGCCAGUGAAGAAAUGAACAAAGAAAAUCUGGGCCAGGCAGGCAUCAAAAGAAGUUGUCUUGCGCUCAACCAGAAAGUCUGUAAUCAUUUUAAGGGUA [A96G A98U], 2.3.

Take GUUAACGGUCAUAGGCCAUGGAAACUAGGAGCACCAUUUCGCUGCCAGUGAAGAAAUGAACAAAGAAAAUCUGGGCCAGGCAGGCAUCAAAAGAACUAGUCCUGCGCUCAACCAGAAAGUCUGUAAUCAUUUUAAGGGUA [A96C U102C]: the self-cleavage was determined as 2.16.

Take GUUAACGGUCAUAGGCCAUGGAAACUAGGAGCACCAUUUCGCUGCCAGUGAAGAAAUGAACAAAGAAAAUCUGGGCCAGGCAGGCAUCAAAAGAAGUAGUCUUGCGCUCCACCAGAAAGUCUGUAAUCAUUUUAAGGGUA [A96G A110C]: the self-cleavage was 0.15. The result for GUUAACGGUCAUAGGCCAUGGAAACUAGGAGCACCAUUUCGCUGCCAGUGAAGAAAUGAACAAAGAAAAUCUGGGCCAGGCAGGCAUCAAAAGAAGUAGUCUCGCGCUCAACCAGAAAGUCUGUAAUCAUUUUAAGGGUA [A96G U103C] reads 1.27. For GUUAACGGUCAUAGGCCAUGGAAACUAGGAGCACCAUUUCGCUGCCAGUGAAGAAAUGAACAAAGAAAAUCUGGGCCAGGCAGGCAUCAAAAGAAGUAGCCUUGCGCUCAACCAGAAAGUCUGUAAUCAUUUUAAGGGUA [A96G U100C] the value was 2.42; for GUUAACGGUCAUAGGCCAUGGAAACUAGGAGCACCAUUUCGCUGCCAGUGAAGAAAUGAACAAAGAAAAUCUGGGCCAGGCAGGCAUCAAAAGAAGUAGUCUUGCGCUCAUCCAGAAAGUCUGUAAUCAUUUUAAGGGUA [A96G A111U], 0.11; for GUUAACGGUCAUAGGCCAUGGAAACUAGGAGCACCAUUUCGCUGCCAGUGAAGAAAUGAACAAAGAAAAUCUGGGCCAGGCAGGCAUCAAAAGAAGUAGUCUUGCGCUCAGCCAGAAAGUCUGUAAUCAUUUUAAGGGUA [A96G A111G], 0.02. For GUUAACGGUCAUAGGCCAUGGAAACUAGGAGCACCAUUUCGCUGCCAGUGAAGAAAUGAACAAAGAAAAUCUGGGCCAGGCAGGCAUCAAAAGAAGUAGUCUUGCGCUAAACCAGAAAGUCUGUAAUCAUUUUAAGGGUA [A96G C109A] the value was 0.37. GUUAACGGUCAUAGGCCAUGGAAACUAGGAGCACCAUUUCGCUGCCAGUGAAGAAAUGAACAAAGAAAAUCUGGGCCAGGCAGGCAUCAAAAGAACUAGACUUGCGCUCAACCAGAAAGUCUGUAAUCAUUUUAAGGGUA [A96C U100A]: the self-cleavage stood at 0.96. For GUUAACGGUCAUAGGCCAUGGAAACUAGGAGCACCAUUUCGCUGCCAGUGAAGAAAUGAACAAAGAAAAUCUGGGCCAGGCAGGCAUCAAAAGAACUAGCCUUGCGCUCAACCAGAAAGUCUGUAAUCAUUUUAAGGGUA [A96C U100C] the value was 2.01; for GUUAACGGUCAUAGGCCAUGGAAACUAGGAGCACCAUUUCGCUGCCAGUGAAGAAAUGAACAAAGAAAAUCUGGGCCAGGCAGGCAUCAAAAGAACUAGUCUUGCGCUCAACCAGAGAGUCUGUAAUCAUUUUAAGGGUA [A96C A117G], 1.87; for GUUAACGGUCAUAGGCCAUGGAAACUAGGAGCACCAUUUCGCUGCCAGUGAAGAAAUGAACAAAGAAAAUCUGGGCCAGGCAGGCAUCAAAAGAACUAGUCUUGCGCUCAACCAGAAGGUCUGUAAUCAUUUUAAGGGUA [A96C A118G], 0.95.

GUUAACGGUCAUAGGCCAUGGAAACUAGGAGCACCAUUUCGCUGCCAGUGAAGAAAUGAACAAAGAAAAUCUGGGCCAGGCAGGCAUCAAAAGAAGUAGUCUUGCGCUCAACCAGAAAGUCUGUGAUCAUUUUAAGGGUA [A96G A125G]: the self-cleavage is 0.69. Regarding GUUAACGGUCAUAGGCCAUGGAAACUAGGAGCACCAUUUCGCUGCCAGUGAAGAAAUGAACAAAGAAAAUCUGGGCCAGGCAGGCAUCAAAAGAAGUAGUCUUGCGCUCAACCAGAAAGUCUGUUAUCAUUUUAAGGGUA [A96G A125U], the self-cleavage turned out to be 1.42.

As for GUUAACGGUCAUAGGCCAUGGAAACUAGGAGCACCAUUUCGCUGCCAGUGAAGAAAUGAACAAAGAAAAUCUGGGCCAGGCAGGCAUCAAAAGAUAUAGUCUUGCGCUCAACCAGAAAGUCUGUAAUCACUUUAAGGGUA [A95U U130C], the self-cleavage was found to be 0.47. For GUUAACGGUCAUAGGCCAUGGAAACUAGGAGCACCAUUUCGCUGCCAGUGAAGAAAUGAACAAAGAAAAUCUGGGCCAGGCAGGCAUCAAAAGAACUAGUCUUGCGCUCAACCAGGAAGUCUGUAAUCAUUUUAAGGGUA [A96C A116G], the self-cleavage came out at 0.33. For GUUAACGGUCAUAGGCCAUGGAAACUAGGAGCACCAUUUCGCUGCCAGUGAAGAAAUGAACAAAGAAAAUCUGGGCCAGGCAGGCAUCAAAAGAACUAGUCUCGCGCUCAACCAGAAAGUCUGUAAUCAUUUUAAGGGUA [A96C U103C] the value was 0.9; for GUUAACGGUCAUAGGCCAUGGAAACUAGGAGCACCAUUUCGCUGCCAGUGAAGAAAUGAACAAAGAAAAUCUGGGCCAGGCAGGCAUCAAAAGAUAUAGUCUUGUGCUCAACCAGAAAGUCUGUAAUCAUUUUAAGGGUA [A95U C105U], 0.45; for GUUAACGGUCAUAGGCCAUGGAAACUAGGAGCACCAUUUCGCUGCCAGUGAAGAAAUGAACAAAGAAAAUCUGGGCCAGGCAGGCAUCAAAAGAACUAGUCUUACGCUCAACCAGAAAGUCUGUAAUCAUUUUAAGGGUA [A96C G104A], 0.02.

Regarding GUUAACGGUCAUAGGCCAUGGAAACUAGGAGCACCAUUUCGCUGCCAGUGAAGAAAUGAACAAAGAAAAUCUGGGCCAGGCAGGCAUCAAAAGAUAUAGUCUUGCGCUCAACCAGAAAGUCCGUAAUCAUUUUAAGGGUA [A95U U122C], the self-cleavage turned out to be 1.44. For GUUAACGGUCAUAGGCCAUGGAAACUAGGAGCACCAUUUCGCUGCCAGUGAAGAAAUGAACAAAGAAAAUCUGGGCCAGGCAGGCAUCAAAAGAAGAAGUCUUGCGCUCAACCAGAAAGUCUGUAAUCAUUUUAAGGGUA [A96G U97A] the value was 0.94; for GUUAACGGUCAUAGGCCAUGGAAACUAGGAGCACCAUUUCGCUGCCAGUGAAGAAAUGAACAAAGAAAAUCUGGGCCAGGCAGGCAUCAAAAGAAGCAGUCUUGCGCUCAACCAGAAAGUCUGUAAUCAUUUUAAGGGUA [A96G U97C], 0.99.

GUUAACGGUCAUAGGCCAUGGAAACUAGGAGCACCAUUUCGCUGCCAGUGAAGAAAUGAACAAAGAAAAUCUGGGCCAGGCAGGCAUCAAAAGAAGUAGUCUUGCUCUCAACCAGAAAGUCUGUAAUCAUUUUAAGGGUA [A96G G106U]: the self-cleavage stood at 0.01.

GUUAACGGUCAUAGGCCAUGGAAACUAGGAGCACCAUUUCGCUGCCAGUGAAGAAAUGAACAAAGAAAAUCUGGGCCAGGCAGGCAUCAAAAGAAGUAGUCUUGCCCUCAACCAGAAAGUCUGUAAUCAUUUUAAGGGUA [A96G G106C]: the self-cleavage stood at 0.02.

For the variant GUUAACGGUCAUAGGCCAUGGAAACUAGGAGCACCAUUUCGCUGCCAGUGAAGAAAUGAACAAAGAAAAUCUGGGCCAGGCAGGCAUCAAAAGAACUAGUCUUGCGCUCAACCAGAAAGUCUGUAGUCAUUUUAAGGGUA [A96C A126G], the self-cleavage amounted to 0.77. The result for GUUAACGGUCAUAGGCCAUGGAAACUAGGAGCACCAUUUCGCUGCCAGUGAAGAAAUGAACAAAGAAAAUCUGGGCCAGGCAGGCAUCAAAAGAACUAGUCUUGCGCUCAACCAGAAAGUCUGUAAUCAUUCUAAGGGUA [A96C U132C] reads 0.83. For GUUAACGGUCAUAGGCCAUGGAAACUAGGAGCACCAUUUCGCUGCCAGUGAAGAAAUGAACAAAGAAAAUCUGGGCCAGGCAGGCAUCAAAAGAAGUAGUCUUGCGCUCAACCAGAAUGUCUGUAAUCAUUUUAAGGGUA [A96G A118U] the value was 0.79; for GUUAACGGUCAUAGGCCAUGGAAACUAGGAGCACCAUUUCGCUGCCAGUGAAGAAAUGAACAAAGAAAAUCUGGGCCAGGCAGGCAUCAAAAGAAGUAGUCUUGCGCUCAACCAGAAAGUCUGUAAUCAUUUUAAGGUUA [A96G G138U], 1.33; for GUUAACGGUCAUAGGCCAUGGAAACUAGGAGCACCAUUUCGCUGCCAGUGAAGAAAUGAACAAAGAAAAUCUGGGCCAGGCAGGCAUCAAAAGAAGUAGUCUUGCGCUCAACCAGAAAGUCUGUAAUCAUUUUAAAGGUA [A96G G136A], 2.06. For GUUAACGGUCAUAGGCCAUGGAAACUAGGAGCACCAUUUCGCUGCCAGUGAAGAAAUGAACAAAGAAAAUCUGGGCCAGGCAGGCAUCAAAAGAAGUAGUCUUGCGCUCAACCAGAAAGUCUGUAAUCAUUUUAAGGGUG [A96G A140G] the value was 1.47; for GUUAACGGUCAUAGGCCAUGGAAACUAGGAGCACCAUUUCGCUGCCAGUGAAGAAAUGAACAAAGAAAAUCUGGGCCAGGCAGGCAUCAAAAGAAGUAGUCUUGCGCUCAACCAGAAAGUUUGUAAUCAUUUUAAGGGUA [A96G C121U], 2.57. As to GUUAACGGUCAUAGGCCAUGGAAACUAGGAGCACCAUUUCGCUGCCAGUGAAGAAAUGAACAAAGAAAAUCUGGGCCAGGCAGGCAUCAAAAGAAGUAGUCUUGCGCUCAACCAGAUAGUCUGUAAUCAUUUUAAGGGUA [A96G A117U], the self-cleavage is 0.89. For GUUAACGGUCAUAGGCCAUGGAAACUAGGAGCACCAUUUCGCUGCCAGUGAAGAAAUGAACAAAGAAAAUCUGGGCCAGGCAGGCAUCAAAAGAUAUAGUCUUGCGCUCAACCAGAAAGUCUGUAAUCAUUCUAAGGGUA [A95U U132C], the self-cleavage is 1.4.
